Assay results from patent US20120316071A1 (published 2012).

Assays:
Recombinant Human DLL4 [1] = target: T1, Recombinant Human DLL4 (human, UniProt Q9NR61 27-524); assay: ELISA, DLL4 coated on plate, Fab at 100 nM, absorbance at 450 nm minus blank
T1 construct: also called delta-like protein 4; rHuman DLL4

Recombinant Human DLL4 [2] = target: T2, Recombinant Human DLL4 (human, UniProt Q9NR61 27-524); assay: ELISA, DLL4 coated on the plate, Fab at 100 nM, signal minus blank
T2 construct: Bought recombinant human DLL4 (R&D Systems Cat#1506-D4/CF); also called delta-like protein 4; Delta-like 4

Binder | ELISA Signal-blank (100 nM Fab) (Recombinant Human DLL4 [1]) | ELISA Signal-blank (100 nM Fab) (Recombinant Human DLL4 [2])
Fab VH5-51_IGHD5-18*01>3_IGHJ4*01 G100K/G104T G24T/S28R/G35V (H:KT TRV) & V3-4_IGLJ1*01 G23A (Fab, V domains shown, Fab; expressed in E. coli with CH1 (Plasmid A, His6 and Flag tags) and lambda CL (Plasmid E); also called H:KT TRV & G23A) VH: EVQLVQSGAEVKKPGESLKISCKTSGYRFTSYWIVWVRQMPGKGLEWMGIIYPGDSDTRYSPSFQGQVTISADKSISTAYLQWSSLKASDTAMYYCARRKYSYTYDYFDYWGQGTLVTVSS VL: QTVVTQEPSFSVSPGGTVTLTCALSSGSVSTSYYPSWYQQTPGQAPRTLIYSTNTRSSGVPDRFSGSILGNKAALTITGAQADDESDYYCVLYMGSGISYVFGTGTKVTVL | 0.405 | 
Fab VH5-51_IGHD5-18*01>3_IGHJ4*01 G100K/G104T G24T/S28R/G35V (H:KT TRV) & V3-4_IGLJ1*01 I98A (Fab, V domains shown, Fab; expressed in E. coli with CH1 (Plasmid A, His6 and Flag tags) and lambda CL (Plasmid E); also called H:KT TRV & I98A) VH: EVQLVQSGAEVKKPGESLKISCKTSGYRFTSYWIVWVRQMPGKGLEWMGIIYPGDSDTRYSPSFQGQVTISADKSISTAYLQWSSLKASDTAMYYCARRKYSYTYDYFDYWGQGTLVTVSS VL: QTVVTQEPSFSVSPGGTVTLTCGLSSGSVSTSYYPSWYQQTPGQAPRTLIYSTNTRSSGVPDRFSGSILGNKAALTITGAQADDESDYYCVLYMGSGASYVFGTGTKVTVL | 0.162 | 
Fab VH5-51_IGHD5-18*01>3_IGHJ4*01 G100K/G104T G24T/S28R/G35V (H:KT TRV) & V3-4_IGLJ1*01 L24A (Fab, V domains shown, Fab; expressed in E. coli with CH1 (Plasmid A, His6 and Flag tags) and lambda CL (Plasmid E); also called H:KT TRV & L24A) VH: EVQLVQSGAEVKKPGESLKISCKTSGYRFTSYWIVWVRQMPGKGLEWMGIIYPGDSDTRYSPSFQGQVTISADKSISTAYLQWSSLKASDTAMYYCARRKYSYTYDYFDYWGQGTLVTVSS VL: QTVVTQEPSFSVSPGGTVTLTCGASSGSVSTSYYPSWYQQTPGQAPRTLIYSTNTRSSGVPDRFSGSILGNKAALTITGAQADDESDYYCVLYMGSGISYVFGTGTKVTVL | 0.244 | 
Fab VH5-51_IGHD5-18*01>3_IGHJ4*01 G100K/G104T G24T/S28R/G35V (H:KT TRV) & V3-4_IGLJ1*01 P35A (Fab, V domains shown, Fab; expressed in E. coli with CH1 (Plasmid A, His6 and Flag tags) and lambda CL (Plasmid E); also called H:KT TRV & P35A) VH: EVQLVQSGAEVKKPGESLKISCKTSGYRFTSYWIVWVRQMPGKGLEWMGIIYPGDSDTRYSPSFQGQVTISADKSISTAYLQWSSLKASDTAMYYCARRKYSYTYDYFDYWGQGTLVTVSS VL: QTVVTQEPSFSVSPGGTVTLTCGLSSGSVSTSYYASWYQQTPGQAPRTLIYSTNTRSSGVPDRFSGSILGNKAALTITGAQADDESDYYCVLYMGSGISYVFGTGTKVTVL | 0.236 | 
Fab VH5-51_IGHD5-18*01>3_IGHJ4*01 G100K/G104T G24T/S28R/G35V (H:KT TRV) & V3-4_IGLJ1*01 G97A (Fab, V domains shown, Fab; expressed in E. coli with CH1 (Plasmid A, His6 and Flag tags) and lambda CL (Plasmid E); also called H:KT TRV & G97A) VH: EVQLVQSGAEVKKPGESLKISCKTSGYRFTSYWIVWVRQMPGKGLEWMGIIYPGDSDTRYSPSFQGQVTISADKSISTAYLQWSSLKASDTAMYYCARRKYSYTYDYFDYWGQGTLVTVSS VL: QTVVTQEPSFSVSPGGTVTLTCGLSSGSVSTSYYPSWYQQTPGQAPRTLIYSTNTRSSGVPDRFSGSILGNKAALTITGAQADDESDYYCVLYMGSAISYVFGTGTKVTVL | 0.129 | 

The next lines start with the values.

ELISA Signal-blank (100 nM Fab) (Recombinant Human DLL4 [1]) | ELISA Signal-blank (100 nM Fab) (Recombinant Human DLL4 [2]) | Binder
 | 0.734 | Fab VH5-51_IGHD5-18*01>3_IGHJ4*01 G100K/G104T G24T/S28R/G35V (H:KT TRV) & V3-4_IGLJ1*01 V91L (Fab, V domains shown, Fab; expressed from plasmid A (CH1, His6 and Flag tags) and plasmid E (lambda CL)) VH: EVQLVQSGAEVKKPGESLKISCKTSGYRFTSYWIVWVRQMPGKGLEWMGIIYPGDSDTRYSPSFQGQVTISADKSISTAYLQWSSLKASDTAMYYCARRKYSYTYDYFDYWGQGTLVTVSS VL: QTVVTQEPSFSVSPGGTVTLTCGLSSGSVSTSYYPSWYQQTPGQAPRTLIYSTNTRSSGVPDRFSGSILGNKAALTITGAQADDESDYYCLLYMGSGISYVFGTGTKVTVL
 | 0.203 | Fab VH5-51_IGHD5-18*01>3_IGHJ4*01 G100K/G104T G24T/S28R/G35V (H:KT TRV) & V3-4_IGLJ1*01 V91N (Fab, V domains shown, Fab; expressed from plasmid A (CH1, His6 and Flag tags) and plasmid E (lambda CL)) VH: EVQLVQSGAEVKKPGESLKISCKTSGYRFTSYWIVWVRQMPGKGLEWMGIIYPGDSDTRYSPSFQGQVTISADKSISTAYLQWSSLKASDTAMYYCARRKYSYTYDYFDYWGQGTLVTVSS VL: QTVVTQEPSFSVSPGGTVTLTCGLSSGSVSTSYYPSWYQQTPGQAPRTLIYSTNTRSSGVPDRFSGSILGNKAALTITGAQADDESDYYCNLYMGSGISYVFGTGTKVTVL
0.483 |  | Fab VH5-51_IGHD5-18*01>3_IGHJ4*01 G100K/G104T G24T/S28R/G35V (H:KT TRV) & V3-4_IGLJ1*01 S25A (Fab, V domains shown, Fab; expressed in E. coli with CH1 (Plasmid A, His6 and Flag tags) and lambda CL (Plasmid E); also called H:KT TRV & S25A) VH: EVQLVQSGAEVKKPGESLKISCKTSGYRFTSYWIVWVRQMPGKGLEWMGIIYPGDSDTRYSPSFQGQVTISADKSISTAYLQWSSLKASDTAMYYCARRKYSYTYDYFDYWGQGTLVTVSS VL: QTVVTQEPSFSVSPGGTVTLTCGLASGSVSTSYYPSWYQQTPGQAPRTLIYSTNTRSSGVPDRFSGSILGNKAALTITGAQADDESDYYCVLYMGSGISYVFGTGTKVTVL
0.502 |  | Fab VH5-51_IGHD5-18*01>3_IGHJ4*01 G100K/G104T G24T/S28R/G35V (H:KT TRV) & V3-4_IGLJ1*01 S32A (Fab, V domains shown, Fab; expressed in E. coli with CH1 (Plasmid A, His6 and Flag tags) and lambda CL (Plasmid E); also called H:KT TRV & S32A) VH: EVQLVQSGAEVKKPGESLKISCKTSGYRFTSYWIVWVRQMPGKGLEWMGIIYPGDSDTRYSPSFQGQVTISADKSISTAYLQWSSLKASDTAMYYCARRKYSYTYDYFDYWGQGTLVTVSS VL: QTVVTQEPSFSVSPGGTVTLTCGLSSGSVSTAYYPSWYQQTPGQAPRTLIYSTNTRSSGVPDRFSGSILGNKAALTITGAQADDESDYYCVLYMGSGISYVFGTGTKVTVL
 | 0.264 | Fab VH5-51_IGHD5-18*01>3_IGHJ4*01 G100K/G104T G24T/S28R/G35V (H:KT TRV) & V3-4_IGLJ1*01 V91S (Fab, V domains shown, Fab; expressed from plasmid A (CH1, His6 and Flag tags) and plasmid E (lambda CL)) VH: EVQLVQSGAEVKKPGESLKISCKTSGYRFTSYWIVWVRQMPGKGLEWMGIIYPGDSDTRYSPSFQGQVTISADKSISTAYLQWSSLKASDTAMYYCARRKYSYTYDYFDYWGQGTLVTVSS VL: QTVVTQEPSFSVSPGGTVTLTCGLSSGSVSTSYYPSWYQQTPGQAPRTLIYSTNTRSSGVPDRFSGSILGNKAALTITGAQADDESDYYCSLYMGSGISYVFGTGTKVTVL
0.344 |  | Fab VH5-51_IGHD5-18*01>3_IGHJ4*01 G100K/G104T G24T/S28R/G35V (H:KT TRV) & V3-4_IGLJ1*01 S30A (Fab, V domains shown, Fab; expressed in E. coli with CH1 (Plasmid A, His6 and Flag tags) and lambda CL (Plasmid E); also called H:KT TRV & S30A) VH: EVQLVQSGAEVKKPGESLKISCKTSGYRFTSYWIVWVRQMPGKGLEWMGIIYPGDSDTRYSPSFQGQVTISADKSISTAYLQWSSLKASDTAMYYCARRKYSYTYDYFDYWGQGTLVTVSS VL: QTVVTQEPSFSVSPGGTVTLTCGLSSGSVATSYYPSWYQQTPGQAPRTLIYSTNTRSSGVPDRFSGSILGNKAALTITGAQADDESDYYCVLYMGSGISYVFGTGTKVTVL
